Test results published in the DeepSol protein solubility set.

assay: soluble on expression in E. coli; label from the status in PepcDB or PDB records

| Sequence | soluble on expression in E. coli |
| --- | --- |
| MGSDKIHHHHHHMSNPAYTAMWEKLNLDIPAHDGLLEVLGKFYGDIYMSQQGRLQGMEYLDFVLSEVHGLRIQELQQAKEQGKKIIGTFCVFVPEEITLAAGAVHVGLCSGADAGTEEAEKLVPRNTCALIKSFIGFKLARLCPFTESCDLVVGETTCDGKKKAYEAFAEHVPMHVMEVPNTKSDAARDLFKTEVLRYMQALQQLTGTAITPQALASGIRAVNAKRRALQRLSALRSADPAPISGRDALLINQVSFYDDPERFTHSINALCDQMEERIARKEGIAPAGTPRLLLSGCPMAVPNWKLPYIMESSGAVIVGEESCIGTRNTRDLVDESQETLDGMIDALVDRYMKIDCACFTPNTERLHNVTAMAQELKADGIVHYALKFCQPYAHEAFKIEKAAREKDIPVLSVETDYSMEDAEQLKTRVEAFVEMVRG | not soluble |
| MGSDKIHHHHHHMSNQHSWALSMNQIENCSCSHGCGCQFGGFPTSKDGGCEAILGFEILKGHFNDLDLSGLKMVFAAAWPSAMHEGNGKGALFIDNSANEEQVGALATIMSGQAGGMPVEVLGTLFSEFDGPIMADIKLNRQDYTSTVTIEGIIEVEQEPHINPVTGEINEVHISFPKGGFMWNDGFAGKTKLMKINHGNMAFSYSDTFAANAVVNWPNA | not soluble |
| MGSDKIHHHHHHMSNTGSLSYLRILDFTGEIGPYAAKLYAGLGADVIHIEPIAGDTLRSTGPFFGNRPGKERSMQFIYYNAGKRGLVLDLKKEKGKEVFVDLCKGADILFESFTPGYLDELGLSFDVLSAANPKLVQTSITPFGSFGPYSTYPGSDLTCSALGGFLYLAGIDNDKPVRACDNQAYRMAEVYAAVGSSIALLFAQKTGVGQFVDVSCMEAVGMALETAAQCWDLEGTLRRGRGKEAGSATIHPCKDGFIAIVAIVGRNKTMWTPFVQWMKEEGVEEWELFDNDNWINASYRESKAGYELFCRIFERFTMKHTKQYLYDAGQAHRVAVSPVSNGKDLLENPQLNHHDFWQRLYHEPVGAEVVCPGAPYEFGHLKWRLGDFAPTFGQHTAEVLGECGYSRSEIDALDREGVVHVAKS | not soluble |
| MGSDKIHHHHHHMSQILQNFIKQAQYNPLHSLEEWEEDLLNRYPDPHSIVKEGKTTQEYRNYETPTRETVKEFYRLNHINQTYNFVLEKEKNFLKFDKKEMSVWDAVEFLNQLVDDSDPDTEMDQLQHLLQTSEAIRADGHPDWMVLTGFFHDMGKVLCLFGEPQWATVGDTYPVGCAFSDKIVFSEFFQENPDYNNPNYNTKYGIYEPNCGLINVHISWGHDEYFYQMMKNYLPEPALYMLRYHSFYPQHRENAYKHLMDNHDREMFKWVKLFNPYDLYSKNPTPPDWQKLRPYYEDLVAKYLPATLKF | not soluble |
| MGSDKIHHHHHHMSQQRPDRIKQMLHYLWQHRHLSTQQAIELFGYAEATVRRDFHYIASRYPGMVRGHGCIDFDDSTEDKEYVFDVKRTLQSEAKREIAALARTFIKDGDCFFLDSGSTCLELAKCLVDAKVKVICNDIKIANELGGFPHVESYIIGGLIRPGYFSVGESLALEMINAFAVERAFISCDALSIETGITNATMFEVGVKTRIIQRSREVILMADHSKFDTVEPHAVATLSCITTILSDSALPSAIARRYQQAGCRLIMSDPSSGAR | not soluble |
| MGSDKIHHHHHHMSRRDEGNMVADAGALLPNGDTVSTDAIKVPAGRVNRLMRLGGLAAGIAGGATLQAIAGIARGTRPDARSLLASPANVRRVADELARMRGAAMKIGQLLSMDAGEVLPPELAQILARLRDRAHIMPPSQLGQVLEREWGAGWRRQFKRFDVRPIAAASIGQVHRARTRDGRDLAIKVQYPGVARSIDSDVSNVGALLRLSGLLPKGFDISPYLAEARRQLHEETDYAREGAQLKRFAEWLTDSDTFVVPQYHADLSTAQILAMSYVAGQPIETLADADAATRNRVMTALVDLSLREVFHFGAMQSDPNFANYRYVPQSGRIVLLDFGAARDLHPLVTKSYADMLRSGLVGDDHGIWDAARALGLISDGPDIGSSEARLLALIAGVFEVLRAQEFDFADQTLIRALNEEGMALAQSGYHPPSLPMDVLYLQRKFGGLFLLGNRLRTKLCLRDIIDPYL | not soluble |
| MGSDKIHHHHHHMSRTLVLFDIDGTLLKVESMNRRVLADALIEVYGTEGSTGSHDFSGKMDGAIIYEVLSNVGLERAEIADKFDKAKETYIALFRERARREDITLLEGVRELLDALSSRSDVLLGLLTGNFEASGRHKLKLPGIDHYFPFGAFADDALDRNELPHIALERARRMTGANYSPSQIVIIGDTEHDIRCARELDARSIAVATGNFTMEELARHKPGTLFKNFAETDEVLASILTPKHS | not soluble |
| MGSDKIHHHHHHMSRYLEMLSLFGVAGAHPGGLAFSKAVLQKAAPSPDQPILDAGCGTGQTAAYLGHLLYPVTVVDKDPIMLEKAKKRFANEGLAIPAYQAELEHLPFSSESFSCVLSESVLSFSRLTSSLQEISRVLKPSGMLIGIEAALKKPMPPAEKKQMMDFYGFTCLHEESEWHKLLRSYGFQKTEAMSLLPEDMEFEPTTEMDLSQTIDPIYYDTLQTHYQLMQLYSEYMGHCIFIAYK | not soluble |
| MGSDKIHHHHHHMSSEHQLLVGLLKKLKADALVLPTLPEVAMRVQEVVSRPDSSPKQVAEIIGQDAAISARMIKVANSAMYSRGIKAENINAAVTRIGLTQIKAIATSVAMEQLFISTNEMVWEVMDEVWRASIEVTSAACALLLKYSKTHKGCGLNYDTLTLASLVHNIGALPVLTEAEANPHLFTSIEQLRALVRKMQGPLGRAVLKSWDFSPEVTEVVERWADLPYLPEQVTYLDFVRAAAFYTGELRAGHDLEERLDVFLQRGLPVSPEYLGSDEFLDNYHSIKLSYE | not soluble |
| MGSDKIHHHHHHMSSGITPPLIAGNLALDFINTQFGVGADRYECLNDDSSVVEWLHQAGVLNDTLAAPPAGLVERARELREDMQTLIVSAREGRGADPAIVNQVLERGHPIERLEWVPAYAAFQKQTYRRDLTSESLLQPVAQALVELLTKEDLHLVKECQAPDCVLLFHDQTKSHRRRWCSMASCGNRMKAAAHRARKSAT | not soluble |
| MGSDKIHHHHHHMSSIFEKYSVRRVINASGKMTILGVSTVDKEVIEAIGEGCKNFFIIEELINKTGEYIANLLGCESALIVSSASAGIAQSVGAMIAKDDMSLVYNVNNPKKQVKREIIIPKGHNVDYGVPVEVMIRLGGGEVVEAGYANMCNKEHIIREINENTAAIMYIKSHHCVQKSMLSVLDAVQVAKEYNLPLIVDAAAEEDLNVYYELGADLVIYSGAKAIEGPSSGLVIGKKKYIDNVKLQSKGIGRAMKIGKENIVGLTCAIERYISNDKVTLKEMEDKLNPFIDKINTIKGVSASITRDSAGREILRGEIDFNEDIINKSTQQIINELRSGEIAIYTRDYKANEGKIEIDIRSVTGSDLDTIYNRIKNIVES | not soluble |
| MGSDKIHHHHHHMSSIIAALTYFFKEVLVFVSYVKNNAFPQPLSKEEERHYLKRMAEGDEEARNRLIEHNLRLVAHIVKKFENTREHTEDLISIGTIGLIKAIESFSEGKGTKLATYAARCIENEILMHLRALKKVKKDVSLHDPIGTDKEGNEITLIDVLQEDSEDIADSIQLKMEKKQIYEYIHVLDDREKEVIVGRFGLDLEEERTQREIAKELGISRSYVSRIEKRALMKLFHEFYKHNHGKG | not soluble |
| MGSDKIHHHHHHMSSLPLQKSLYPLLRPLGAAYRVLMRARRRRYENGAACGTDVPCVSVGNIGWGGSGKTPVVQWLLQWAAVHGLHAVVLTRGYKASPPGLPYVVTPQSSAAHAGDEPLMLARSCPQATVVVDPVRSRSARWAQERLAPDFFVLDDGFQHVQVARDTDLVLLKKDDLHAEWGRVLPAGSWREGPEALSRAAAFCIKCGSGEFSGLVPDFENRLGSFGVPVFGFSLRPGALIPVCGAHEGAQLPAGAPYVLFSGVGDPAQVAVTVSSFLGYDPVRHHVFADHHGYTQADMDRMAGYGLPLVCTPKDAVKLTAPCGVPVWTLSLETNFHSVWNAQPPAGQAGEGFAQWWQCRWQRLAGLR | not soluble |
| MGSDKIHHHHHHMSSPFDYFVVFAEMRTGSNFLEANLNALDGVACVGEAFNPHFIGYPNKTEILEVSQDMRDADPQCLIDAVRDARGVLAGFRFFHDHDPRVLDLVLSDPRCAKIILTRNPLDSYVSWKIAKETGQWKLTNIKRRKEAQARFDAEEFARHVEALQDFQVFLLNSLQRSGQTPFYVAYEDLQDLSVMNGLAQWLGVSARLEQLDDSLKRQNPSPVTSKVVNAGEMVEALSGLDRFNLTRTPNFEPRRGPAVPTYVTGAVTPLIYLPVRGGPEDEVRRWMADLDGVVDAALGTGLNQKQVRGWLKGNEGHRAFTVLRHPLARAHSAFCHRILNKGPGCFTKIRNTLRRQFSLPIPEGTPGLDYGRADHRAAFEAFLEFVRMNLAGQTAIRIDGSWCSQAQALSSFAEFVSPDLILREDEIATDLPSLARRFGHAEPPEPPRAAPDTPIPLSDIYDDALEALAADVYQRDYIVFGFGKWAGGQA | not soluble |
| MGSDKIHHHHHHMSSSQQIAKNARKAGNILKTISNEGRSDILYKIHDALKANAHAIEEANKIDLAVAKETGLADSLLKRLDLFKGDKFEVMLQGIKDVAELEDPVGKVKMARELDDGLTLYQVTAPVGVLLVIFESRPEVIANITALSIKSGNAAILKGGKESVNTFREMAKIVNDTIAQFQSETGVPVGSVQLIETRQDVSDLLDQDEYIDLVVPRGSNALVRKIKDTTKIPVLGHADGICSIYLDEDADLIKAKRISLDAKTNYPAGCNAMETLLINPKFSKWWEVLENLTLEGGVTIHATKDLKTAYFDKLNELGKLTEAIQCKTVDADEEQDFDKEFLSLDLAAKFVTSTESAIQHINTHSSRHTDAIVTENKANAEKFMKGVDSSGVYWNASTRFADGFRYGFGAEVGISTSKIHARGPVGLDGLVSYQYQIRGDGQVASDYLGAGGNKAFVHKDLDIKTVTL | soluble |
| MGSDKIHHHHHHMSTDTDDDSGSHGCKAPDSDGEVAENIAIVAFERKMDTAEDIVDGIGDRYESIDILEYHGDVFEEYWGEYDCFIGLMASGIAMRKTAHLLDDKWDDPAICVVDEELTWAIPITGGHHGANQVADDLASMGAVPAMTTASEAADKQGVEKQAKALDAHVVNGDSTVATNLAVLDDELGPIERLDGPKAVLVDDDVTVLKRNKDDGIVLGCGSVAGADVEQFHAAWEQALDEADLDRDDVEFVATGTRKADEEGMLAAAEEWGLGVIAFEKETLEGFEGPTPSRSKELIGWPGIAEASAIAAGSEHDLLAEKTRYDEAVTVAIGR | not soluble |
| MGSDKIHHHHHHMSTNISLFAQVIRLLPRPLIKKLSTEFQVDKHSKHFTSWQHLVSMIFSQFSSCISLREISNGLRSATGNLNHLGICTAPSKSNLSYQNEHRTSDFFRACYYALLDYFGQQGMGQGRKFRFKQPVKLLDSTTITLCLALYDWAKYTHTKGAVKLHTLLDFKTLLPEYVHISDGKGHDGKMANSIPIPAGSIVVADRGYADTALLNSWDSTQVSFVVRHPRSLKYEVIQELELPEHGHQQILVDQRVRLTGVQTQGKYTKPLRHIALYNEQHGDVVELLTNIDTLAASSIALLYRSRWLIEIFFRNLKQRLSMKAFLGTTRNAVEVQIWTALITMLLMVYLKSIAKYRWCLSNLVSSLRINTFTKMDLMQWLNEPFTPPPEPENQLF | not soluble |
| MGSDKIHHHHHHMSTPSPHCALCGIALGERLCRDSEGKSPAFCPTQNFSEIKEENSALYEGETKRFAKNAAIQEASCYEGREQGYAHLRPAKPRIEEIIEFAQKMGYQKLGLAFCMGLRNEAKAVELLLQKRGFEVVSVICKVGNSDKSTLGIDEEDKLIPHTPEAMCDPLLQARLLNESQTDFNIMLGLCVGHDSLFLKASEALCTVFAVKDRLLGHNPLAAIYTLESYYRSLKEG | not soluble |
